{"source": "patent US8394607B2", "about": "“Anti-CD22 antibodies and immunoconjugates and methods of use” (Genentech, Inc., priority 2006, dated 2013)", "key": {"human CD22": {"test_system": "human CD22", "sequence (P20273 20-240 limits assumed)": "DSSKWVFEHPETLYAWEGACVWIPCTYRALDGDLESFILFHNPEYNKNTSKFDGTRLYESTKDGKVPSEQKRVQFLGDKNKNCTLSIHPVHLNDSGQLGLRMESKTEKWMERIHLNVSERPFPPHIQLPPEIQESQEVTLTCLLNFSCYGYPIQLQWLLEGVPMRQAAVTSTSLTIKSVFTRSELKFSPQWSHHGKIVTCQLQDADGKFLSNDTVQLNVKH", "experiment": "ELISA plate assays and FACS cell-based assays for selection of hybridoma antibodies", "format": "binding", "protocol": "Murine monoclonal antibodies capable of specifically binding human CD22 was prepared. BALB/c female mice, age six weeks, were immunized in their foot pads with purified human CD22 his-8 tagged extracellular domain lacking domains 3 and 4 (SEQ ID NO:30 (ECD) plus the sequence […] at the C-terminus) or CD22 his-8 tagged extracellular domain comprising domains 1-7 (SEQ ID NO:28 (ECD) plus the above His sequence tag) in Ribi's adjuvant. Subsequent injections were performed in the same manner at one and three weeks after the initial immunizations. […]\nELISA-based assays: Anti-CD22 antibody screening by ELISA is performed as follows, with all incubations done at room temperature. […] Data is obtained by reading the plates in an automated ELISA plate reader at an absorbance of 490 nm.\nCHO cells expressing human CD22 on their surface were incubated with anti-CD22 hybridoma supernatant in 100 μl FACS buffer (0.1% BSA, 10 mM sodium azide in PBS, pH 7.4) for 30 minutes at 4° C. followed by one wash with FACS buffer. The amount of anti-CD22 binding was determined by incubating an aliquot of the antibody/cell mixture with a polyclonal FITC conjugated goat or rabbit anti-mouse IgG (Accurate Chem. Co., Westbury, N.Y.) (for murine test antibodies) or goat or rabbit anti-human IgG (for humanized antibodies) for 30 minutes at 4° C. followed by three washes with FACS buffer."}, "[1]": {"biological_target": "T1, human CD22 (CD22beta) lacking domain 1, domain 2, or domains 3 and 4 (Homo sapiens, UniProt P20273)", "T1 construct": "expressed in transfected cells", "T1 sequence (P20273 22-670 isoform P20273-2)": "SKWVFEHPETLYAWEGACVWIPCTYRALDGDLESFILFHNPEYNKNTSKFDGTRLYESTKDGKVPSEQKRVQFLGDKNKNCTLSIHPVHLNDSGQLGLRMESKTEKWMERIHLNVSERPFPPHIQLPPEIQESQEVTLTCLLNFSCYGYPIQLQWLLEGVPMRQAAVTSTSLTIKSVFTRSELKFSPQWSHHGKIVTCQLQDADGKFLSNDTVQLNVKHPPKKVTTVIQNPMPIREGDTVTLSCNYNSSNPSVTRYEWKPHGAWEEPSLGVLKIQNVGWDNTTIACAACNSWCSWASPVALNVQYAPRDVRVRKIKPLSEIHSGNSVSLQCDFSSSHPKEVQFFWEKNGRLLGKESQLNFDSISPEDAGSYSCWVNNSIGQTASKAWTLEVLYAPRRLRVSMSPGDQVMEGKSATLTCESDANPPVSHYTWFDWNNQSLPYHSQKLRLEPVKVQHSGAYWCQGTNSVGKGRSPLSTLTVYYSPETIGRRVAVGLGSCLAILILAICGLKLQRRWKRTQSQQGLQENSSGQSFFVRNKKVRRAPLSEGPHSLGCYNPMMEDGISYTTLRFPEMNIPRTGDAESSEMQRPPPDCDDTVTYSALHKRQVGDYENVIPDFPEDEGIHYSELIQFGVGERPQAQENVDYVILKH", "experiment": "Epitope mapping by flow cytometry on CHO cells expressing CD22 domain deletion variants", "format": "binding", "conditions": "flow cytometry, CHO cells", "protocol": "(§1) The epitopes of CD22 to which 10F4.4.1 and 5E8.1.8 antibodies bound were determined according to the following procedures. CD22 sequences lacking various of the seven immunoglobulin-like domains of the major CD22 isoform (CD22beta) were cloned and transformed into cells for stable expression. For example, CD22 variants lacking domain 1 (Δ1), domain 2 (Δ2), or domains 3 and 4 (Δ3,4) were cloned, transformed into CHO cells, and expressed on the cells. Control cells expressed CD22beta. Deletions were performed using Stratagene QuikChange XL™ reagent kit. Deletion of domain 1 was performed by deletion of amino acids 22-138; deletion of domain 2 was performed by deletion of amino acids 139-242; and deleted domains 3 and 4 were available as the minor isoform CD22alpha (deletion of amino acids 241-417). All amino acid numbers refer to the numbering of full length precursor CD22beta by Wilson, G. L. et al. (see FIG. 1 in Wilson, G. L. et al., J. Exp. Med. 173:137-146 (1991)). FIG. 14 is a diagram of the deleted domains. Binding was determined by flow cytometry using an isotype control. Binding of 10F4.4.1 was detected using goat anti-mouse IgG Alexa 488. Binding of 5E8.1.8 was detected using biotinylated goat anti-mouse IgG plus streptavidin PE. […] Neither bound CD22 lacking domain 1 or domain 2, and both bound CD22 comprising domains 1 and 2, but lacking domains 3 and 4."}, "[2]": {"test_system": "human CD22 (CD22beta) lacking domain 1, domain 2, or domains 3 and 4", "experiment": "Epitope mapping by flow cytometry on CHO cells expressing CD22 domain deletion variants", "format": "binding", "protocol": "as §1"}, "[3]": {"biological_target": "T2, human CD22-beta-ECD-His tagged soluble antigen (Homo sapiens, UniProt P20273, A486R/Y639H)", "T2 sequence (P20273 22-681 A486R/Y639H)": "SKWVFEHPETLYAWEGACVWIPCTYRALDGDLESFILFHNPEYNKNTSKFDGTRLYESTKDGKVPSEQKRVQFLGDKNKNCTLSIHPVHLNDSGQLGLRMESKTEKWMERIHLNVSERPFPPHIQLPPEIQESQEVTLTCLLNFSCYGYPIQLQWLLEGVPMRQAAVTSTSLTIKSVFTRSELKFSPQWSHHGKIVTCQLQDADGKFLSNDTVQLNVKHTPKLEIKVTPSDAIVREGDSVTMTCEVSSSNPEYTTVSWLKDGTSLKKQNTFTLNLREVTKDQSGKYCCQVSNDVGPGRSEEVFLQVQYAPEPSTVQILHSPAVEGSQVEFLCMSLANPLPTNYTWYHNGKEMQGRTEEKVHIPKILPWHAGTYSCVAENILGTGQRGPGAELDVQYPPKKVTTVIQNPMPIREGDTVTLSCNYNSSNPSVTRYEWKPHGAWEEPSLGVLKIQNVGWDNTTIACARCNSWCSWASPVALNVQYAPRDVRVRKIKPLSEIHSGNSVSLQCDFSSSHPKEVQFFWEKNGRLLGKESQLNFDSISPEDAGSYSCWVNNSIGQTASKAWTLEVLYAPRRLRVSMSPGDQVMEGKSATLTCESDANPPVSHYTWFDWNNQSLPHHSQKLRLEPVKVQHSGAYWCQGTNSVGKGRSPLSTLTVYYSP", "experiment": "BIACORE surface plasmon resonance binding to soluble CD22 ECD", "conditions": "BIACORE 3000, 25° C., antibody coupled to chip, soluble CD22 ECD injected; one-to-one Langmuir model", "protocol": "The binding affinity of murine and humanized 10F4 antibody for soluble CD22 extracellular domain (ECD) was determined by surface plasmon resonance measurement using a BIACORE® 3000 system (Biacore, Inc., Piscataway, N.J.). Briefly, carboxymethylated dextran biosensor chips (CMS, Biacore Inc.) were activated with N-ethyl-N′-(3-dimethylaminopropyl)-carbodiimide hydrochloride (EDC) and N-hydroxysuccinimide (NHS) according to the supplier's instructions. These activated chips were coated with anti-CD22 IgG1 antibody 10F4 (murine or humanized) by dilution to 5 μg/ml with 10 mM sodium acetate, pH 4.8, before injection at a flow rate of 5 μl/minute to achieve approximately 500 response units (RU) of coupled antibody. Next, 1M ethanolamine was injected to block unreacted groups. […] Association rates (kon) and dissociation rates (koff) were calculated using a simple one-to-one Langmuir binding model (BIAevaluation Software version 3.2). The equilibrium dissociation constant (Kd) was calculated as the ratio koff/kon. Anti-CD22 antibody, RFB4, was used as a control (Chemicon International, Inc., Temecula, Calif., catalog no. CBL147)."}}}
{"molecule": "Mu 10F4.4.1: murine anti-human CD22 monoclonal antibody, hybridoma ATCC PTA-7621 (antibody, V domains shown) VH: QVQLQQSGPELVKPGASVKISCKASGYEFSRSWMNWVKQRPGQGREWIGRIYPGDGDTNYSGKFKGKATLTADKSSSTAYMQLSSLTSVDSAVYFCARDGSSWDWYFDVWGAGTTVTVSS VL: DILMTQTPLSLPVSLGDQASISCRSSQSIVHSNGNTFLEWYLQKPGQSPKLLIYKVSNRFSGVPDRFSGSGSGTDFTLKISRVEAEDLGVYYCFQGSQFPYTFGGGTKVEIK", "values": [{"measurement": "specific binding to human CD22", "setting": "human CD22", "result": "bind specifically to human CD22"}, {"measurement": "binding to CD22 comprising domains 1 and 2 but lacking domains 3 and 4", "setting": "[1]", "result": "both bound"}, {"measurement": "binding to CD22 lacking domain 1 or domain 2", "setting": "[2]; flow cytometry, CHO cells", "result": "Neither bound"}, {"measurement": "epitope (CD22 domains bound)", "setting": "[2]; within amino acid 22 to amino acid 240 of SEQ ID NO:27", "result": "domains 1 and 2 of human CD22"}, {"measurement": "koff/10^−4", "setting": "[3]", "result": 2.8}, {"measurement": "kon/10^5", "setting": "[3]", "result": 0.19}]}
